Experimental data taken from the supplement of paper PMC10065799, “High-throughput profiling of sequence recognition by tyrosine kinases and SH2 domains using bacterial peptide display” (eLife, 2023).

The sequences below were run against FGFR1 (UniProt P11362) (assay: phosphorylation enrichment, bacterial display (enrichment ratio); higher = better substrate or ligand; peptides without Tyr show the background).
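Also: 11-residue human phosphosite peptides and single-mutation variants displayed on the E. coli surface, counted by deep sequencing, each peptide's frequency after selection divided by its frequency in the unselected input library; frequency after pTyr selection over input frequency; kinase dosed for 20-30% of maximal phosphorylation in three min.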

Sequence of FGFR1 (P11362 whole entry, looked up): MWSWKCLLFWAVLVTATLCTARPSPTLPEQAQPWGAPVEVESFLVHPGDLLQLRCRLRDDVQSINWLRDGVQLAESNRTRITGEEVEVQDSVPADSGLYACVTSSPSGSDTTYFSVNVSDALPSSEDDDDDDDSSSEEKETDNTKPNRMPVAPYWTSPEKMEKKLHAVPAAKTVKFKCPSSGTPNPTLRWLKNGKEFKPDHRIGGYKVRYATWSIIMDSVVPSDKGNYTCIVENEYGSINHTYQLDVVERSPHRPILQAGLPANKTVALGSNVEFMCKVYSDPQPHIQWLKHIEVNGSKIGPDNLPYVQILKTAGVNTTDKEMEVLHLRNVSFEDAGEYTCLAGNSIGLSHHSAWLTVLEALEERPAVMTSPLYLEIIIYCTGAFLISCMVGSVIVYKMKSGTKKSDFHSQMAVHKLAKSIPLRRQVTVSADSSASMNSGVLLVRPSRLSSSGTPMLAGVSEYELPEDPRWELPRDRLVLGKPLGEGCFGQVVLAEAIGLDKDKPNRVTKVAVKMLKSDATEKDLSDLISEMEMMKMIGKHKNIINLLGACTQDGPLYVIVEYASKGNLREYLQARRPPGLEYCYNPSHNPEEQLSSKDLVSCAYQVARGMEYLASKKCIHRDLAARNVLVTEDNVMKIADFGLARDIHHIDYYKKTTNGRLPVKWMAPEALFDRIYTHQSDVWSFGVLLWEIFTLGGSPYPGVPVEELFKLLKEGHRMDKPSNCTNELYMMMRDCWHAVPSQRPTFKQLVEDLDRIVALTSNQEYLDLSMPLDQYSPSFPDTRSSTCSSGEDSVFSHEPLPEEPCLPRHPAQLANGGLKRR

Row | Sequence | phosphorylation enrichment
1 | FRARAYGFRGP [CHGA_Y381] | 0.497
2 | GRVYVYRLSEQ [ITGAE_Y551] | 0.411
3 | SILTVYSKDNY [PANK2_Y400_A398T] | 0.452
4 | CTTIHYNYMCT [TP53_Y234_N239T] | 0.899
5 | TLLAFYMGNFS [GLB1_Y552_P549L] | 0.435
6 | CTTILYNYMCN [TP53_Y234_H233L] | 0.94
7 | AEYGLYRAMVR [VSX2_Y222_G223R] | 0.577
8 | RDSQIYAVDYE [MRPS34_Y34_L33I] | 1.21
9 | VKMLPYTEVTR [GDI1_Y93_L92P] | 0.416
10 | AGITAYQSCLQ [ADGRA2_Y377] | 0.562
11 | ALTDNYMFLVI [HAGH_Y61_YF] | 7.04
12 | FASALYGQRRS [FGF11_Y162_R163G_YF] | 0.364
13 | EGTATYAAAVL [JUP_Y644] | 0.394
14 | ITGNGYFFRVF [MYBPC3_Y1135_I1131T_YF] | 0.451
15 | KNKELYSDPFD [PDE10A_Y300_L303P] | 0.706
16 | FDRREYSRFEK [ITGB7_Y758_YF] | 0.452
17 | RGESFYQDRMN [RARS_Y338] | 0.534
18 | KPPFSYNALIM [FOXG1_Y186] | 0.455
19 | QKMLDYLKEKK [RYR2_Y3780] | 0.553
20 | QNAGDYYDLYG [PTPN11_Y62_T59A] | 19.5
21 | HILRVYSGVLP [PCNX4_Y999_G1000S] | 0.671
22 | SSSPTYPDLPF [GLI3_Y168] | 0.784
23 | NTYEKYWLFYQ [GATM_Y103_P105L] | 1.7
24 | KPMDTYFDSTR [DYNC2H1_Y2230_YF] | 0.778
25 | RLEGVYRNNID [PTEN_Y46] | 0.293
26 | DPNQQYYIAMD [TBX15_Y159_H156N] | 3.98
27 | VDSLRYIYPKL [EIF2B3_Y92_A87V] | 0.453
28 | ALWFIYLHTRS [ENG_Y614_S615L_YF] | 0.409
29 | FSNVLYRPRGA [TMIGD2_Y197_YF] | 0.388

Each sequence was assayed against Hck (UniProt P08631) in the same assay as above.
Sequence of Hck (P08631 whole entry, looked up): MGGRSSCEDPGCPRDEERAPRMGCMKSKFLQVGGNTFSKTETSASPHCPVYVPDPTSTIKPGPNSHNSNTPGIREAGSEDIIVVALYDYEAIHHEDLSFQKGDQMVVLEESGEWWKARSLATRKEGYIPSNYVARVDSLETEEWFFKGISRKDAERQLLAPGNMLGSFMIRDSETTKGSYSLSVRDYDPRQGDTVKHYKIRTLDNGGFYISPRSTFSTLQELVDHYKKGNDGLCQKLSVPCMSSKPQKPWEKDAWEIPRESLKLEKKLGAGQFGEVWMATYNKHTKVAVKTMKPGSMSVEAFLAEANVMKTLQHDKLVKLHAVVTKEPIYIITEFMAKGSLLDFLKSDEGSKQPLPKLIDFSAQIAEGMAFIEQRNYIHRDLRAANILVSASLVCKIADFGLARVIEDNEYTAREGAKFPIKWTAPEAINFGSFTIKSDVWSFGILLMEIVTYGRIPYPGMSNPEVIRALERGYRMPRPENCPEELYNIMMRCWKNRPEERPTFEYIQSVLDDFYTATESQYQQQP

Row | Sequence | phosphorylation enrichment
30 | FRARAYGFRGP [CHGA_Y381] | 0.569
31 | GRVYVYRLSEQ [ITGAE_Y551] | 0.462
32 | SILTVYSKDNY [PANK2_Y400_A398T] | 0.449
33 | CTTIHYNYMCT [TP53_Y234_N239T] | 0.545
34 | TLLAFYMGNFS [GLB1_Y552_P549L] | 0.62
35 | CTTILYNYMCN [TP53_Y234_H233L] | 1.14
36 | AEYGLYRAMVR [VSX2_Y222_G223R] | 9.69
37 | RDSQIYAVDYE [MRPS34_Y34_L33I] | 4.23
38 | VKMLPYTEVTR [GDI1_Y93_L92P] | 0.45
39 | AGITAYQSCLQ [ADGRA2_Y377] | 0.568
40 | ALTDNYMFLVI [HAGH_Y61_YF] | 0.869
41 | FASALYGQRRS [FGF11_Y162_R163G_YF] | 0.903
42 | EGTATYAAAVL [JUP_Y644] | 0.987
43 | ITGNGYFFRVF [MYBPC3_Y1135_I1131T_YF] | 0.377
44 | KNKELYSDPFD [PDE10A_Y300_L303P] | 0.824
45 | FDRREYSRFEK [ITGB7_Y758_YF] | 0.454
46 | RGESFYQDRMN [RARS_Y338] | 0.631
47 | KPPFSYNALIM [FOXG1_Y186] | 0.472
48 | QKMLDYLKEKK [RYR2_Y3780] | 0.491
49 | QNAGDYYDLYG [PTPN11_Y62_T59A] | 5.32
50 | HILRVYSGVLP [PCNX4_Y999_G1000S] | 1.15
51 | SSSPTYPDLPF [GLI3_Y168] | 0.59
52 | NTYEKYWLFYQ [GATM_Y103_P105L] | 1.36
53 | KPMDTYFDSTR [DYNC2H1_Y2230_YF] | 0.484
54 | RLEGVYRNNID [PTEN_Y46] | 0.389
55 | DPNQQYYIAMD [TBX15_Y159_H156N] | 0.613
56 | VDSLRYIYPKL [EIF2B3_Y92_A87V] | 0.524
57 | ALWFIYLHTRS [ENG_Y614_S615L_YF] | 0.428
58 | FSNVLYRPRGA [TMIGD2_Y197_YF] | 0.41

Each sequence was assayed on c-Abl (mouse) in the same assay as above.

Row | Sequence | phosphorylation enrichment
59 | FRARAYGFRGP [CHGA_Y381] | 0.658
60 | GRVYVYRLSEQ [ITGAE_Y551] | 0.683
61 | SILTVYSKDNY [PANK2_Y400_A398T] | 0.639
62 | CTTIHYNYMCT [TP53_Y234_N239T] | 0.656
63 | TLLAFYMGNFS [GLB1_Y552_P549L] | 1.06
64 | CTTILYNYMCN [TP53_Y234_H233L] | 0.615
65 | AEYGLYRAMVR [VSX2_Y222_G223R] | 7.87
66 | RDSQIYAVDYE [MRPS34_Y34_L33I] | 0.684
67 | VKMLPYTEVTR [GDI1_Y93_L92P] | 0.492
68 | AGITAYQSCLQ [ADGRA2_Y377] | 0.918
69 | ALTDNYMFLVI [HAGH_Y61_YF] | 1.22
70 | FASALYGQRRS [FGF11_Y162_R163G_YF] | 0.47
71 | EGTATYAAAVL [JUP_Y644] | 0.639
72 | ITGNGYFFRVF [MYBPC3_Y1135_I1131T_YF] | 0.647
73 | KNKELYSDPFD [PDE10A_Y300_L303P] | 0.592
74 | FDRREYSRFEK [ITGB7_Y758_YF] | 0.596
75 | RGESFYQDRMN [RARS_Y338] | 0.726
76 | KPPFSYNALIM [FOXG1_Y186] | 0.57
77 | QKMLDYLKEKK [RYR2_Y3780] | 0.533
78 | QNAGDYYDLYG [PTPN11_Y62_T59A] | 1.04
79 | HILRVYSGVLP [PCNX4_Y999_G1000S] | 0.872
80 | SSSPTYPDLPF [GLI3_Y168] | 0.967
81 | NTYEKYWLFYQ [GATM_Y103_P105L] | 0.8
82 | KPMDTYFDSTR [DYNC2H1_Y2230_YF] | 0.615
83 | RLEGVYRNNID [PTEN_Y46] | 1.35
84 | DPNQQYYIAMD [TBX15_Y159_H156N] | 0.571
85 | VDSLRYIYPKL [EIF2B3_Y92_A87V] | 0.553
86 | ALWFIYLHTRS [ENG_Y614_S615L_YF] | 0.979
87 | FSNVLYRPRGA [TMIGD2_Y197_YF] | 0.611

Each sequence was assayed against Fes (UniProt P07332) in the same assay as above.
Sequence of Fes (P07332 whole entry, looked up): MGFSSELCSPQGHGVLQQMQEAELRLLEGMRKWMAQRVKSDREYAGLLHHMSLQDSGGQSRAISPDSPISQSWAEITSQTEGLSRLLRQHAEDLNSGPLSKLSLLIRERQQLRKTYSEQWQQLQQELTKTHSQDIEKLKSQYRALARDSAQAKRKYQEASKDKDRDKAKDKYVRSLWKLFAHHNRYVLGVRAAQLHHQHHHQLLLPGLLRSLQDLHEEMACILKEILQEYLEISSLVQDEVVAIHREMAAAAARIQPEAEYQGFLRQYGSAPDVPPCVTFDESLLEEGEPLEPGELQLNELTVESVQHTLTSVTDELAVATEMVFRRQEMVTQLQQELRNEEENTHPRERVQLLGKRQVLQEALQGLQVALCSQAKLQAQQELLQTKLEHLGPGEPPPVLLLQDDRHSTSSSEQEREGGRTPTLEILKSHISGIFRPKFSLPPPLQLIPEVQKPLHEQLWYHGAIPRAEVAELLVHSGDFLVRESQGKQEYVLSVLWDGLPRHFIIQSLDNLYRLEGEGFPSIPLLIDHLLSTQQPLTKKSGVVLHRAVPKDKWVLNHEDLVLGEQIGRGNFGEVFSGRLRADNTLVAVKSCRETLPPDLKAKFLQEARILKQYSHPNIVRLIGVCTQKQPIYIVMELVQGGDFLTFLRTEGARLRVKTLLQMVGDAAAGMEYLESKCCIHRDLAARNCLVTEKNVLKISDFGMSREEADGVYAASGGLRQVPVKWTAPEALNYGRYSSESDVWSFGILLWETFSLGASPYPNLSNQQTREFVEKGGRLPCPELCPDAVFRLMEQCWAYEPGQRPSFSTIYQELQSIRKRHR

Row | Sequence | phosphorylation enrichment
88 | FRARAYGFRGP [CHGA_Y381] | 0.747
89 | GRVYVYRLSEQ [ITGAE_Y551] | 1.04
90 | SILTVYSKDNY [PANK2_Y400_A398T] | 0.91
91 | CTTIHYNYMCT [TP53_Y234_N239T] | 1
92 | TLLAFYMGNFS [GLB1_Y552_P549L] | 1.49
93 | CTTILYNYMCN [TP53_Y234_H233L] | 1.06
94 | AEYGLYRAMVR [VSX2_Y222_G223R] | 0.768
95 | RDSQIYAVDYE [MRPS34_Y34_L33I] | 1.56
96 | VKMLPYTEVTR [GDI1_Y93_L92P] | 0.717
97 | AGITAYQSCLQ [ADGRA2_Y377] | 1.3
98 | ALTDNYMFLVI [HAGH_Y61_YF] | 1.62
99 | FASALYGQRRS [FGF11_Y162_R163G_YF] | 0.682
100 | EGTATYAAAVL [JUP_Y644] | 0.661
101 | ITGNGYFFRVF [MYBPC3_Y1135_I1131T_YF] | 1.08
102 | KNKELYSDPFD [PDE10A_Y300_L303P] | 0.886
103 | FDRREYSRFEK [ITGB7_Y758_YF] | 0.666
104 | RGESFYQDRMN [RARS_Y338] | 0.996
105 | KPPFSYNALIM [FOXG1_Y186] | 0.724
106 | QKMLDYLKEKK [RYR2_Y3780] | 1.1
107 | QNAGDYYDLYG [PTPN11_Y62_T59A] | 1.25
108 | HILRVYSGVLP [PCNX4_Y999_G1000S] | 1.22
109 | SSSPTYPDLPF [GLI3_Y168] | 0.933
110 | NTYEKYWLFYQ [GATM_Y103_P105L] | 1.39
111 | KPMDTYFDSTR [DYNC2H1_Y2230_YF] | 0.804
112 | RLEGVYRNNID [PTEN_Y46] | 0.889
113 | DPNQQYYIAMD [TBX15_Y159_H156N] | 0.992
114 | VDSLRYIYPKL [EIF2B3_Y92_A87V] | 0.844
115 | ALWFIYLHTRS [ENG_Y614_S615L_YF] | 1.37
116 | FSNVLYRPRGA [TMIGD2_Y197_YF] | 0.845
